Earlier results as cited in PMC12667676.

Molecular target: MCHR1 (Homo sapiens) (UniProt Q99705)
Chain of UniProt Q99705 (Q99705 whole entry): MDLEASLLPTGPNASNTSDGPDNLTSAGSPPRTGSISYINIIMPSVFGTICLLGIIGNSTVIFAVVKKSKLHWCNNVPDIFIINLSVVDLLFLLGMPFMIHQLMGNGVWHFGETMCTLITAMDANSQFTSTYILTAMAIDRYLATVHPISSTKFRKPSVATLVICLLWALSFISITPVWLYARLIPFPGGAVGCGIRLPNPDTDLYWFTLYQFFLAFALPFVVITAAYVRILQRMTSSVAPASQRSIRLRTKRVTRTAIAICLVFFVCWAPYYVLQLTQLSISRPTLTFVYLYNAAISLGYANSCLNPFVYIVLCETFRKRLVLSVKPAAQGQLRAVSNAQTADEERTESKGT

Kd: 3.1 nM
Substance: melanin-concentrating hormone (from UniProt P20382)
